For 1 substance, IC50 of Ca2+ response, MDA-MB-231 cells expressing CXCR4 alone, IC50 of Ca2+ response, MDA-MB-231 cells with CXCR4 + ADRB2, with Carvedilol 600 nM and IC50 of Ca2+ response, MDA-MB-231 cells with CXCR4 + ADRB2, without Carvedilol results are on record in patent US20220273751A1, “GPCR HETEROMER INHIBITORS AND USES THEREOF” (GPCR THERAPEUTICS, INC., priority 2019, published 2022).

The target in the experiment is CXCR4 (C-X-C Motif Chemokine Receptor 4) (human) (UniProt P61073). Description: cell-based or functional assay.
Chain of CXCR4 (C-X-C Motif Chemokine Receptor 4) (human) (P61073 whole entry): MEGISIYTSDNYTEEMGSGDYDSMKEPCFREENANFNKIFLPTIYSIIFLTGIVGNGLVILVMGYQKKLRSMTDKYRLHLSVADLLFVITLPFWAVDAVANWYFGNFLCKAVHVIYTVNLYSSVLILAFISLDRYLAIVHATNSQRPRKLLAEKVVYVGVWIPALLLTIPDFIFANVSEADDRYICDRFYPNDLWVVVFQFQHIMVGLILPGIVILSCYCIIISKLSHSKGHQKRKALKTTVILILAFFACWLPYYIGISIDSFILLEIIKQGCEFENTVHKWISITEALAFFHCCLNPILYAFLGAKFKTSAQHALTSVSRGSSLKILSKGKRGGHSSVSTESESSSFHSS

For BKT140 (peptide), the IC50 of Ca2+ response, MDA-MB-231 cells expressing CXCR4 alone is 0.579 µM; the IC50 of Ca2+ response, MDA-MB-231 cells with CXCR4 + ADRB2, with Carvedilol 600 nM turned out to be 0.00194 µM; the IC50 of Ca2+ response, MDA-MB-231 cells with CXCR4 + ADRB2, without Carvedilol came out at 0.0887 µM.
